The values that follow are results of earlier work, collected in patent publication US20230303640A1, “EXENDIN-4 PEPTIDE ANALOGS” (TXP Pharma AG, priority 2020, published 2023).

For orientation: EC50 means the concentration at which the effect is half-maximal.

The target of the data set is T1, human GLP-1 receptor (Homo sapiens, UniProt P43220).
T1 construct: expressed in transfected cells; host or cells: CHO-K1
Conditions: FIG. 3; data included and detailed in PCT/IB2015/000553 (WO/2015/162485).

T1 sequence (P43220 24-463): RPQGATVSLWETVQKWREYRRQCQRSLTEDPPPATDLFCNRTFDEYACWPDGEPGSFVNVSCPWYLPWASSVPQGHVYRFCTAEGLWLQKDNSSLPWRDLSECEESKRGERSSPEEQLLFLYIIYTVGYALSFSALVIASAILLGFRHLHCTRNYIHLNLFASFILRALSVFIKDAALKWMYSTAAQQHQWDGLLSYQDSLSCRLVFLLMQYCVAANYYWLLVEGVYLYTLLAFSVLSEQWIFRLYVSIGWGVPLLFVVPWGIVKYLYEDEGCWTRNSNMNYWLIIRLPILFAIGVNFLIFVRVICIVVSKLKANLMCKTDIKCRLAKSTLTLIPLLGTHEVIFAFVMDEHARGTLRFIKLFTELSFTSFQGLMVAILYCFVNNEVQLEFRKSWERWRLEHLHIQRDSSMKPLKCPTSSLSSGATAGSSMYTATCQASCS

On to “Ac-His-Gly-Glu-Gly-Thr-Phe-Thr-Ser-Asp-Val-Ser-Ser-Tyr-Leu-Glu-Gly-Gln-Ala-Ala-Lys-Glu-Phe-Ile-Ala-Trp-Leu-Val-Lys-Gly-Arg-Gly-(Lys-Lys-Ac)Lys-NH2 (HGEGTFTSDVSSYLEGQAAKEFIAWLVKGRG; N-acetyl; C-terminal (Lys-Lys-Ac)Lys amide; printed: His-Gly-Glu-Gly-Thr-Phe-Thr-Ser-Asp-Val-Ser-Ser-Tyr-Leu-Glu-Gly-Gln-Ala-Ala-Lys-Glu-Phe-Ile-Ala-Trp-Leu-Val-Lys-Gly-Arg-Gly-) [Analogue 3, GLP-1 analogue with C-terminal BAP, from WO/2015/162485]”, for which the EC50 was 0.04 nM.
